How the values were obtained:
[1] = target: recombinant His-tagged human PD-1 (Acro Biosystems) (human) (UniProt Q15116); experiment: SPR Carterra LSA
[2] = target: recombinant His-tagged cynomolgus PD-1 (Acro Biosystems) (cynomolgus) (UniProt B0LAJ3); experiment: SPR Carterra LSA
Chain of recombinant His-tagged cynomolgus PD-1 (Acro Biosystems) (cynomolgus) (B0LAJ3 entry or part of it limits assumed): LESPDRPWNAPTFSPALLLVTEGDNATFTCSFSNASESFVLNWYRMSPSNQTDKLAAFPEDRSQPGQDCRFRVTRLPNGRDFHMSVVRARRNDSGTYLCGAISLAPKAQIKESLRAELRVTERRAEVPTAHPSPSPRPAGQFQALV

Chain of recombinant His-tagged human PD-1 (Acro Biosystems) (human) (Q15116 25-167 limits assumed): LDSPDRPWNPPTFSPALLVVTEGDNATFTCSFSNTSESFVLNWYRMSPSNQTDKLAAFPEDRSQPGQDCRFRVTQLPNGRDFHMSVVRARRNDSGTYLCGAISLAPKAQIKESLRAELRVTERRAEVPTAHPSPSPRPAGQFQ

With Anti-PD-1 clone MIH4 mIgG1 (antibody) the Kd [1] was 10 nM, the koff [1] was 0.0014 s⁻¹ and the kon [1] was 130000 M⁻¹ s⁻¹. It also gave a Kd [2] of 891 nM, a koff [2] of 0.12 s⁻¹ and a kon [2] of 130000 M⁻¹ s⁻¹.

Substance “Anti-hPD-1 clone EH12.2H7-mIgG1 (antibody)” has a Kd [1] of 19 nM, a koff [1] of 0.0022 s⁻¹ and a kon [1] of 110000 M⁻¹ s⁻¹. The Kd [2] was 85 nM, the koff [2] was 0.0073 s⁻¹ and the kon [2] was 86000 M⁻¹ s⁻¹.

Anti-hPD-1 clone J105-mIgG1 (antibody) showed a Kd [1] of 86 nM, a koff [1] of 0.0053 s⁻¹ and a kon [1] of 62000 M⁻¹ s⁻¹. It also gave a Kd [2] of 1300 nM, a koff [2] of 0.066 s⁻¹ and a kon [2] of 50000 M⁻¹ s⁻¹.

With KEYTRUDA ® (pembrolizumab) (antibody) the Kd [2] was 0.575 nM.

Work on OPDIVO ® (nivolumab) (antibody) yielded a Kd [2] of 6.4 nM.
